Results reported in patent US20130195869A1 (SEKISUI CHEMICAL, published 2013).
Residue numbers refer to the chain shown, from its start.

T1: human native CCR7 on peripheral blood mononuclear cells of a healthy person (human, UniProt P32248 25-378)
T1 construct: whole, on cells; Endogenous receptor on primary cells of a donor; kept apart from the recombinant receptor on CHO-K1 cells; also called CCR7 on PBMC
T1 sequence (looked up): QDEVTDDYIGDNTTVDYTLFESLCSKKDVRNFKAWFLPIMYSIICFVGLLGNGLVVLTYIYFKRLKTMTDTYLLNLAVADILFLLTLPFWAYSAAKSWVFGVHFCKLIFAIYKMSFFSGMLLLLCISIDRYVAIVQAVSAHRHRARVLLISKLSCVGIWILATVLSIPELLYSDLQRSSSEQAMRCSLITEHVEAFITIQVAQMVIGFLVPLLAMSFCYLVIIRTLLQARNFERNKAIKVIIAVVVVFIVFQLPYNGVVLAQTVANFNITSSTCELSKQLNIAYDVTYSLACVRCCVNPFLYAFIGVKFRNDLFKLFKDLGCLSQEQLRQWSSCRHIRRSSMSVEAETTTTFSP

T2: human CCR7 expressed on CHO-K1 cells (human CCR7 gene-introduced stable expression cell) (human, UniProt P32248 25-378)
T2 construct: also called hCCR7; hCCR7 gene-introduced cell
T2 sequence: T1 sequence (looked up)

B1: anti-human CCR7 monoclonal antibody R7-01 (hybridoma FERM BP-11369) (antibody, IgG1, V domains shown)
VH: EVQLQQSGPELVKPGTSVKMSCKGSGYTFTDYYINWVRQSHGKSLEWIGRVNPGNGGTSYNQRFKGKATLTVDKFLSTAFMQLNSLTSEDSAVYFCARTGTYYNYDRGGFAYWGHGTLVTVSA
VL: DVLLTQSPVSLPVSLGDQASISCRCSQNIVHINGNTYLEWFLQKPGQSPKLLIYKVSNRFSGVPDRFSGSGSGTDFTLKIRRVEAEDLGVYYCFQGSHVPHTFGSGTK
notes: Mouse monoclonal antibody purified from hybridoma supernatant on protein G
B2: anti-human CCR7 monoclonal antibody R7-02 (hybridoma FERM BP-11404) (antibody, IgG2a, V domains shown)
VH: QVQLQQSGAELERPGASVKLSCTASGFNIRDDYVHWVKQRPEQGLEWIGRIDPANGNTKYGPKFQAKATLTADTSSNTAYLQLGSLTSEDTAVYYCTRSFYDYDLFVPWGQGTLVTVSA
VL: DAVVTQESALTTSPGETVTLTCRSSTGAVTKNNFANWVQEKPDHLFTGLIGGNNIRAPGVPARFSGSLIGDKAALSITGAQTEDEAIYFCALWYSNHWVFGGGTK
notes: Mouse monoclonal antibody from hybridoma
B3: anti-human CCR7 monoclonal antibody R7-05 (hybridoma FERM BP-11371) (antibody, IgG2b, V domains shown)
VH: EVQLQQSGAELVRPGASVKLSCTASGFNIKDDYIHWVKQRPEQGLDWIGRVDPADGNTKYAPNFHDKATVTADTSSNTAYLQLSSLTSEDTAVYYCARSFYDYDLFASWGQGTLVTVSA
VL: B2 VL with K31T, N32S, G51S, G52S, I55K
notes: as for B2
B4: anti-human CCR7 monoclonal antibody R7-09 (hybridoma FERM BP-11372) (antibody, IgG2a, V domains shown)
VH: B3 VH with A9T, E42D, D46E, V51I, D55N, N63K, H65Q, V70I, A72S, T116S
VL: B2 VL with E16G, T19I, K31T, N32S, T47S, G51S, I55K, I87M, S95N
notes: as for B2
B5: anti-human CCR7 monoclonal antibody R7-11 (hybridoma FERM BP-11373) (antibody, IgG1, V domains shown)
VH: EVQLQQSGPDLVMPGASVRISCKASGYSFTAYYMHWVKQSHGLSLEWIGRVNPNNGGTSYNRKFKDKAILTVDRSSSTAFMELRSLTSEDSAVYYCARSESDHFYAMDSWGQGNSVSVSS
VL: DIVMTQTPLSLPVSLGDQVFISCRSSQSLVHSNGNTYLCWFLQKPGQSPKLLIYRVSNRFSGVPDRFSGSGSGTDFTLKISRVEAEDLGVYFCFQGSHVPHTFGSGTK
notes: as for B2
B6: anti-human CCR7 monoclonal antibody R7-18 (hybridoma FERM BP-11374) (antibody, IgG1, V domains shown)
VH: EVQLQQSGPDLVKPGASVKISCKASGYSFTGYYMHWVKQSHGKSLEWIGRVNPNNGGTSYNKKFKVKAILTVDRSSSTAYMEFRSLTLEDSAVYYCARSESNNFYAMDYWGQGKSVTVSS
VL: B5 VL with V3L, F20S, F41Y
notes: as for B2
B7: anti-human CCR7 monoclonal antibody R7-25 (hybridoma FERM BP-11375) (antibody, IgG1, V domains shown)
VH: EVMVVESGPGLMKPSQSLSLTCAVTGYSITSGYDWHWIRHFPGNILEWMGYINYSGSTNYKPSLKSRISITLDTSKNHFFLKLSSVTTEDTATYYCARGSYYSYEFAYWGQGTLVTVSA
VL: DIVMSQSPSSLAVSVGEKVTMSCKSSQRLLYYSTQKNYLAWYQQKPGQSPKLLIFWASTRESGVPNRFTGSGSGTDFTLTINSVKAEDLAVYYCQQYYTYPTFGGGTK
notes: as for B2
B8: anti-human CCR7 monoclonal antibody R7-47 (hybridoma FERM BP-11376) (antibody, IgG1, V domains shown)
VH: EVQLQQSGPDLVKPGTSVKISCKASGYKFTDFNMDWVRQRHGKSLEWIGDVNPQNGEIFYNQKFRGKATLTVVKSSSTTYLELRSLTSEDTAVYFCTRLEFDYTGSNGFAYWGQGTLVTVSA
VL: DILMTQTPLSLPVSLGDQASISCRSSQTLVHRNGNTYLEWYLQKPGQSPKLLIYKVSNRFSGVPDRFSGRGSGTDFTLKISRVEAEDQGIYYCFQGSHDPWTFGGGTK
notes: as for B2

These molecules were tested against T1, human native CCR7 on peripheral blood … (assay: flow cytometry, 0.5 µg antibody on 3×10^5 human PBMC, FITC anti-mouse IgG).
Procedure: From peripheral blood of a healthy person, mononuclear cells (PBMC) were isolated using Lymphoprep (Axis-Shield) according to a routine method. The isolated PBMC were suspended in a phosphate buffered saline (PBS) solution containing 1 mg/mL human gamma-globulin (Jackson Immuno Research Laboratories), and blocked by incubation at room temperature for 30 minutes. The PBMC (3×10⁵ cells) after blocking were incubated together with each anti-human CCR7 antibody (0.5 μg) or isotype control antibody (0.5 μg) at 4° C. for one hour. Thereafter, PBMC were washed three times with a washing buffer (PBS solution containing 0.1% fetal bovine serum). Then, a fluorescein isothiocyanate (FITC)-labeled anti-mouse IgG antibody (Beckman Coulter) was added as secondary antibody, and incubated at 4° C. for 1 hour. PBMC were washed again three times with the washing buffer, and then analyzed by using a flow cytometer (Beckman Coulter).

Row | Molecule | Percentage of specifically binding cells
1 | B1 | 10.8%
2 | B2 | 44.6%
3 | B3 | 37.3%
4 | B4 | 32.9%
5 | B5 | 25.5%
6 | B6 | 40.5%
7 | B7 | 47%
8 | B8 | 49.3%

The molecules below were run against T2, human CCR7 expressed on CHO-K1 cells … (assay: flow cytometry, 10 µg/mL antibody on hCCR7 gene-introduced CHO-K1 cells, PE anti-mouse IgG).
Procedure: A 10 μg/mL solution of an anti-human CCR7 monoclonal antibody or mouse control IgG (Thermo, negative control) in PBS was prepared (hereinafter, referred to as “antibody solution”). After washing hCCR7 gene-introduced cells with PBS, the antibody solution was incubated together with the cells. Further, the cells were washed with PBS, and added with a phycoerythrin-labeled anti-mouse IgG antibody (Beckman Coulter) as a secondary antibody. Then interaction between the cells, and the anti-human CCR7 antibody or the mouse control IgG was analyzed by using a flow cytometer FACScalibur (Becton, Dickinson). FIG. 9 is a histogram showing an analytical result of interaction between hCCR7 gene-introduced cells, and mouse control IgG. FIG. 10 is a histogram showing an analytical result of interaction between a hCCR7 gene-introduced cell, and anti-human CCR7 antibody R7-47. […] In FIGS. 9 and 10, the vertical axis represents the number of cells, and the horizontal axis represents fluorescence intensity originating from phycoerythrin (PE). Of the two areas (M1, M2), the cell belonging to M2 (right area) indicates the cells that binds to the antibody. In Table 2, a percentage of specifically binding cells is represented by M2/(M1+M2).

Row | Molecule | Percentage of specifically binding cells (M2/(M1 + M2))
9 | B1 | 99.8%
10 | B2 | 100%
11 | B3 | 100%
12 | B4 | 100%
13 | B5 | 100%
14 | B6 | 100%
15 | B7 | 100%
16 | B8 | 99.9%

The molecules below were run against human CCR7 expressed on CHO-K1 cells (human CCR7 gene-introduced stable expression cell) (human) (UniProt P32248) in the same assay as above.

Row | Molecule | Percentage of specifically binding cells (M2/(M1 + M2))
17 | mouse control IgG (Thermo, negative control) (antibody) | 0.7%

The molecules below were run against T2, human CCR7 expressed on CHO-K1 cells … (assay: cell-based or functional assay).

Row | Molecule | 50% inhibition concentration (IC50) of the intracellular Ca^2+ rise caused by 1×10^-7 M CCL21
18 | B1 | 340 nM
19 | B2 | 46 nM
20 | B3 | 94 nM
21 | B4 | 32 nM
22 | B5 | 16 nM
23 | B6 | 11 nM
24 | B7 | 22 nM
25 | B8 | 7.4 nM
